Key:
Assay in all cases: cell_activity
[1] = test system: T1, Rec24 WP_046407494.1 (Sphingomonas sp.); conditions: HEK293T inversion; background 2.34
T1 sequence: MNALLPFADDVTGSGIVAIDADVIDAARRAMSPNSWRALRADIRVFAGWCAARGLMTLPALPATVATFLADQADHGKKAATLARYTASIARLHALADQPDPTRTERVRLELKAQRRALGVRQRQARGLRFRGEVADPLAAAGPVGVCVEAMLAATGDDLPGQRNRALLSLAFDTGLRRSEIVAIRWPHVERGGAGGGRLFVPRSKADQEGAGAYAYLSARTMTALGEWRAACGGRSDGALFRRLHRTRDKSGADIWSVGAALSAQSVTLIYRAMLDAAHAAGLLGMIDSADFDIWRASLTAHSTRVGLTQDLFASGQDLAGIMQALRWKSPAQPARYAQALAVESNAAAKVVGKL

[2] = test system: T2, Rec18 WP_007635552.1 (Paraglaciecola psychrophila); conditions: HEK293T inversion; background 1.255
T2 sequence: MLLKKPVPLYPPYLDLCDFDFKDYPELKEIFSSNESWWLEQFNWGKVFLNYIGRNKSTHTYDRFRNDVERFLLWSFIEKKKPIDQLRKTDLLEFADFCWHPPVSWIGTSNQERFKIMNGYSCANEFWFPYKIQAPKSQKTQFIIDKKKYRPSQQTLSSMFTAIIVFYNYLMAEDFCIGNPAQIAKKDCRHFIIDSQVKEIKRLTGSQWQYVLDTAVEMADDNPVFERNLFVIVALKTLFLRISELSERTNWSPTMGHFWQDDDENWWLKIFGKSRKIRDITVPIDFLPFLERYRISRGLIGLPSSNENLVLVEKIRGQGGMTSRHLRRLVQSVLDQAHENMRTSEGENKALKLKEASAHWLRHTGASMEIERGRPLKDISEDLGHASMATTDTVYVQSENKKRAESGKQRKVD

[3] = test system: T3, Rec21 WP_010365336.1 (Pseudoalteromonas citrea); conditions: HEK293T inversion; background 4.91
T3 sequence: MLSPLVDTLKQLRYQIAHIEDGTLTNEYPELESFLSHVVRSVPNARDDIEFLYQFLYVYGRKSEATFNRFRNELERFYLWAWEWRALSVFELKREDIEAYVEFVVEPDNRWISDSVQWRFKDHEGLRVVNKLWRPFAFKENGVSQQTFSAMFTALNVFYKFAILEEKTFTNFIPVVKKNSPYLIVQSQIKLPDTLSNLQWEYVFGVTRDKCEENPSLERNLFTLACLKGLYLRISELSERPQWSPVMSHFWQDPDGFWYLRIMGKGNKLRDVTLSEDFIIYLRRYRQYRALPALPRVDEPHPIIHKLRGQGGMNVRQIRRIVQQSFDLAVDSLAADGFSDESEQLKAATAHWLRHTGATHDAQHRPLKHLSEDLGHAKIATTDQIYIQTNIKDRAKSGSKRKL

[4] = test system: T4, Rec22 WP_016392893.1 (Pseudomonas plecoglossicida); conditions: HEK293T inversion; background 1.66
T4 sequence: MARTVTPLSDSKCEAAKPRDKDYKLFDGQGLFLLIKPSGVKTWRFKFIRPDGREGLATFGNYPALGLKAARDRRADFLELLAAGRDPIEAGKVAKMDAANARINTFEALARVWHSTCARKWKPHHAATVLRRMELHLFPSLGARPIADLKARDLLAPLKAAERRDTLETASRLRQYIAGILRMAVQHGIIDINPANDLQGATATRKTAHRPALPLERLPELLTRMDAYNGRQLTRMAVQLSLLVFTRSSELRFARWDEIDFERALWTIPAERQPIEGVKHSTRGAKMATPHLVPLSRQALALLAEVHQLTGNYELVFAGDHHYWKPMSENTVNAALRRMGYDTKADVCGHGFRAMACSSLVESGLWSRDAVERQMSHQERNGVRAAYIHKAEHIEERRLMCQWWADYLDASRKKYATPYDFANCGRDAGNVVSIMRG

“GCACTAGCGATANNNNNNNNTATCACTAGTGC (double strand) [Rec24 natural site]” showed an activity [1] of 17.1 % GFP+.
Sequence “TTATGTCCAATANNNNNNNNTATTGGACATAG (double strand) [Rec17-18 natural site]” has an activity [2] of 0.202 % GFP+.
With “TAATGTCCAATANNNNNNNNTATCGGACATAA (double strand) [Rec21 natural site]” the activity [3] was 4.75 % GFP+.
“GACCACTCCAGANNNNNNNNNTCTGGAGTGGTG (double strand) [Rec22 natural site]” gave an activity [4] of 1.45 % GFP+.

Reference: patent US20220396813
